For five substances, Kd, koff and kon results are on record in PMC6270503.

Holding throughout (assay): SPR; ProteON XPR36, GLC chip; BMP-2 immobilised by amine coupling (1000-2000 RU), CV2 VWC1 proteins as analytes in six concentrations; 25 °C, HBST500 (10 mM HEPES pH 7.4, 500 mM NaCl, 0.005% Tween20); global Langmuir 1:1 fit, KD = koff/kon, or from dose-dependency of equilibrium binding for weak or fast binders; apparent KD
(In SPR one partner is held on a chip, and binding of the other changes the refractive index at the surface.)

Assay [1] addresses E. coli derived recombinant human BMP-2 (human) (UniProt P12643).
The target is the same in assay [2]. The source holds these as a separate data set.
Assay [3] shares this target. The source holds these as a separate data set.

pKd: −log10 of the molar value. Where two headings read alike, the source gives them in different places.

Sequence of E. coli derived recombinant human BMP-2 (human) (P12643 283-396): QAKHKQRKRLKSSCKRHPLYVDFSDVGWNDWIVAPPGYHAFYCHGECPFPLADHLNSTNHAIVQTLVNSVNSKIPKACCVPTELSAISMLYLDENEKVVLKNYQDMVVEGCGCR

The term pKd denotes −log10 of the Kd, conventionally taken in molar units. By koff is commonly meant the rate constant with which the complex falls apart. What is called kon is a measure of how fast the partners come together. Regarding CV2 VWC1 E6P (domain or fragment), in assay [1], the pKd is 7.92, the koff amounted to 0.0073 s⁻¹ and the kon stood at 630000 M⁻¹ s⁻¹.
For CV2 VWC1 E10A (domain or fragment), in that order: 7.89, 0.0095 s⁻¹ and 750000 M⁻¹ s⁻¹.
For the substance CV2 VWC1 G4A (domain or fragment), in assay [1], the pKd is 6.62 and the koff was > 0.05 s⁻¹. In assay [2], the koff worked out at 0.06 s⁻¹.
Consider CV2 VWC1 InsA10 (domain or fragment), for which, in assay [1], the pKd was 7.89, the koff came out at 0.0012 s⁻¹ and the kon amounted to 910000 M⁻¹ s⁻¹.
Consider “VWC1 domain (von Willebrand type C domain 1) of Danio rerio Crossveinless 2, wildtype (domain or fragment)”, for which, in assay [1], the pKd is 7.89, the koff was found to be 0.0087 s⁻¹ and the kon worked out at 650000 M⁻¹ s⁻¹. Besides, the pKd in assay [3] is 7.85.
